{"source": "paper PMC4162605", "test_system": "P49302", "experiment": "[…] (DSC); […] (40 mM tris, pH 8.0, 0.5 M ([…]; 1 mg/mL; […]) dissociation", "details": "other: differential scanning calorimetry (DSC)", "data": [{"substance": "unmodified murine polyomavirus VP1 capsomere, as used for DSC", "values": [{"measurement": "dHm of capsomere dissociation (first DSC endotherm)", "result": 87.6, "unit": "kcal/mol"}]}]}
